Results reported in the supplement of paper PMC7877785.
± gives the uncertainty stated by the source.

Assay: self-splicing fitness, log relative to wild type (ln ratio); higher = more splicing; Tetrahymena group I intron in knt gene, E. coli kanamycin selection, DiMSum; sequences stand for … in CUCUCU…GGAGGGAAAAGUUAUCAGGCAUGCACCUGGUAGCUAGUCUUUAAACCAAUAGAUUGCAUCGGUUUAAAAGGCAAGACCGUCAAAUUGCGGGAAAGGGGUCAACAGCCGUUCAGUACCAAGUCUCAGGGGAAACUUUGAGAUGGCCUUGCAAAGGGUAUGGUAAUAAGCUGACGGACAUGGUCCUAACCACGCAGCCAAGUCCUAAGUCAACAGAUCUUCUGUUGAUAUGGAUGCAGUUCACAGACUAAAUGUCGGUCGGGGAAGAUGUAUUCUUCUCAUAAGAUAUAGUCGGACCUCUCCUUAAUGGGAGCUAGCGGAUGAAGUGAUGCAACACUGGAGCCGCUGGGAACUAAUUUGUAUGCGAAAGUAUAUUGAUUAGUUUUGGAGUACUCGUGGUCG
How it was run: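 DiMSum derived fitness as the error-weighted combination of fold changes across replicates, kanamycin versus no kanamycin, normalised to wild type. E. coli BL21(DE3) held the library, which randomised all eight P1ex-region intron nucleotides within the knt kanamycin-resistance gene on pET-22b(+). Six replicate transformations grew overnight at 37°C or 30°C on LB agar with or without 25 μg/mL kanamycin, also containing 100 μg/mL carbenicillin, 50 μM IPTG and 0.2% rhamnose, and pooled colonies were amplicon-sequenced on an Illumina HiSeq 2500.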

Sequence | self-splicing fitness (ln) (30 °C) | self-splicing fitness (ln) (37 °C)
AUGAAGCAAUAUUACGCCAU | -1.17 ± 0.082 | -0.85 ± 0.12
AUGAAGCAAUAUUACGCUAG | -0.164 ± 0.07 | 0.337 ± 0.086
AUGAAGCAAUAUUACGCUCG | -0.0634 ± 0.1 | 0.31 ± 0.16
AUGAAGCAAUAUUACGGCGA | 0.267 ± 0.082 | 0.989 ± 0.11
AUGAAGCAAUAUUACGGCGG | -0.365 ± 0.083 | 0.476 ± 0.11
AUGAAGCAAUAUUACGGCUG | 0.352 ± 0.066 | 0.0954 ± 0.087
AUGAAGCAAUAUUACGGUCA | 0.145 ± 0.07 | 0.605 ± 0.1
AUGAAGCAAUAUUACGGUCC | -0.305 ± 0.12 | 0.363 ± 0.14
AUGAAGCAAUAUUACGGUGG | -1.87 ± 0.069 | -1.92 ± 0.12
AUGAAGCAAUAUUACGGUUG | -0.993 ± 0.11 | -1.49 ± 0.12
AUGAAGCAAUAUUACGUAAC | -2.45 ± 0.18 | 0.328 ± 0.16
AUGAAGCAAUAUUACGUAAG | -1.05 ± 0.057 | -0.409 ± 0.083
AUGAAGCAAUAUUACGUCUA | 0.344 ± 0.094 | 0.623 ± 0.11
AUGAAGCAAUAUUACGUGAC | -2.85 ± 0.13 | -1.63 ± 0.15
AUGAAGCAAUAUUACGUUCA | 0.00482 ± 0.072 | 0.318 ± 0.1
AUGAAGCAAUAUUACGUUCC | -0.618 ± 0.086 | -0.0585 ± 0.11
AUGAAGCAAUAUUACGUUGA | -2.39 ± 0.1 | -0.85 ± 0.12
AUGCAGCAAUAUUACGAAAC | -2.82 ± 0.46 | -0.989 ± 0.27
AUGCAGCAAUAUUACGAGAG | -4.15 ± 0.27 | -1.16 ± 0.12
AUGCAGCAAUAUUACGAGAU | -3 ± 0.15 | -1.54 ± 0.12
AUGCAGCAAUAUUACGAUCA | -0.908 ± 0.14 | -0.711 ± 0.14

Sequence | self-splicing fitness (ln) (30 °C) | self-splicing fitness (ln) (37 °C)
AUGCAGCAAUAUUACGAUUU | -0.306 ± 0.058 | -0.153 ± 0.074
AUGCAGCAAUAUUACGCAGU | -3.23 ± 0.16 | -1.69 ± 0.12
AUGCAGCAAUAUUACGCCCG | -1.22 ± 0.2 | -0.571 ± 0.29
AUGCAGCAAUAUUACGCCGC | -0.963 ± 0.28 | 
AUGCAGCAAUAUUACGCGUG | -3.92 ± 0.17 | -2.59 ± 0.18
AUGCAGCAAUAUUACGCUCC | -2.02 ± 0.29 | 0.0573 ± 0.36
AUGCAGCAAUAUUACGCUGA | -2.82 ± 0.19 | -1.35 ± 0.13
AUGCAGCAAUAUUACGCUUC | -4.78 ± 0.34 | -3.07 ± 0.34
AUGCAGCAAUAUUACGGAUC | -2.52 ± 0.15 | -2.7 ± 0.14
AUGCAGCAAUAUUACGGAUG | -4.6 ± 0.29 | -1.08 ± 0.13
AUGCAGCAAUAUUACGGCAC | -1.72 ± 0.25 | -1.29 ± 0.26
AUGCAGCAAUAUUACGGCCU | 0.794 ± 0.13 | 0.0607 ± 0.16
AUGCAGCAAUAUUACGGUCG | -1.41 ± 0.11 | -0.972 ± 0.14
AUGCAGCAAUAUUACGGUGC | -3.79 ± 0.11 | -3.02 ± 0.13
AUGCAGCAAUAUUACGUACG | -2.15 ± 0.1 | -0.573 ± 0.12
AUGCAGCAAUAUUACGUAGA | -1.71 ± 0.079 | -1.09 ± 0.1
AUGCAGCAAUAUUACGUCCA | -1.72 ± 0.11 | -0.786 ± 0.11
AUGCAGCAAUAUUACGUCCC | -1.53 ± 0.42 | 
AUGCAGCAAUAUUACGUCUG | -3.64 ± 0.35 | -0.405 ± 0.16
AUGCAGCAAUAUUACGUGAC | -3.3 ± 0.21 | -2.08 ± 0.16
AUGCAGCAAUAUUACGUGCU | -2.52 ± 0.1 | -1.9 ± 0.098

Sequence | self-splicing fitness (ln) (30 °C) | self-splicing fitness (ln) (37 °C)
AUGGAGCAAUAUUACGAAAG | -2.94 ± 0.24 | -2.11 ± 0.32
AUGGAGCAAUAUUACGAACU | -1.95 ± 0.28 | -1.45 ± 0.24
AUGGAGCAAUAUUACGAGCU | -3.12 ± 0.27 | -2.17 ± 0.37
AUGGAGCAAUAUUACGAGGC | -3.37 ± 0.34 | -2.44 ± 0.23
AUGGAGCAAUAUUACGAUAC |  | -1.71 ± 0.48
AUGGAGCAAUAUUACGAUUG | -2.3 ± 0.25 | -3.12 ± 0.33
AUGGAGCAAUAUUACGAUUU | -1.08 ± 0.12 | -1.6 ± 0.16
AUGGAGCAAUAUUACGCACU | -0.628 ± 0.14 | -0.159 ± 0.18
AUGGAGCAAUAUUACGCAUA | -1.53 ± 0.42 | -1.29 ± 0.23
AUGGAGCAAUAUUACGCCAA | -1.45 ± 0.44 | -1.03 ± 0.38
AUGGAGCAAUAUUACGCGAU | -2.66 ± 0.49 | -1.82 ± 0.4
AUGGAGCAAUAUUACGCGUA | -2.62 ± 0.44 | -2.09 ± 0.31
AUGGAGCAAUAUUACGCUAA | -3.13 ± 0.45 | -1.32 ± 0.45
AUGGAGCAAUAUUACGCUAG |  | -1.66 ± 0.25
AUGGAGCAAUAUUACGCUUC |  | -1.28 ± 0.32
AUGGAGCAAUAUUACGGAAA | -3.4 ± 0.37 | -2.35 ± 0.29
AUGGAGCAAUAUUACGGCAG | -3.04 ± 0.34 | -1.73 ± 0.5
AUGGAGCAAUAUUACGGCCG | -1.27 ± 0.11 | -0.481 ± 0.19
AUGGAGCAAUAUUACGGCUA | -0.572 ± 0.23 | -0.853 ± 0.26
